Columns and labels:
[1] = biological target: T1, CA/09 H1 HA: hemagglutinin of A/California/7/2009 (H1N1) (Influenza A virus A/California/07/2009 …, UniProt C3W5X2, strain); experiment: ELISA; details: one partner purified
T1 construct: source: insect cells, expressed and purified (Supplementary Methods)

[2] = biological target: T1, CA/09 H1 HA: hemagglutinin of …; experiment: SPR; details: both partners purified
[3] = biological target: BS/07 H1 HA: hemagglutinin of A/Brisbane/59/2007(H1N1) (Influenza A virus A/Brisbane/59/2007 …, strain); experiment: ELISA

Binder	normalized binding affinity (relative to F10 scFv) [1]	Kd [2] [nM]	koff [2] [s⁻¹]	kon [2] [M⁻¹ s⁻¹]	binding result ([3]; both partners purified)	binding result ([3]; one partner purified)
H123#437 scFv (scFv, V domains shown, source: E. coli ER2738, phage-free soluble scFv in filtered culture supernatant; not shown: E-tag, C-terminal, kept) VH: QVQLVQSGAEVKKPGSSVKVSCTSSEFMFPAFAISWVRQAPGQGLEWLGGISPMFDHPNYAQKFQGRVTITADQSTRTAYMDLRSLRSEDTAVYYCARSPTYLPSGVFDHWGQGTLVTVSS VL: QPGLTQPPSVSKGLRQTATLTCTGNSNNVGNQGAAWLQQHQGHPPKLLSYRNNDRPSGISERFSASRSGNTASLTITGLQPEDEADYYCSTWDSSLSAVVFGGGTKLTVL	5.2	–	–	–	–	–
F10 IgG (antibody, V domains shown) VH: QVQLVQSGAEVKKPGSSVKVSCTSSEVTFSSFAISWVRQAPGQGLEWLGGISPMFGTPNYAQKFQGRVTITADQSTRTAYMDLRSLRSEDTAVYYCARSPSYICSGGTCVFDHWGQGTLVTVSS VL: QPGLTQPPSVSKGLRQTATLTCTGNSNNVGNQGAAWLQQHQGHPPKLLSYRNNDRPSGISERFSASRSGNTASLTITGLQPEDEADYYCSTWDSSLSAVVFGGGTKLTVL	–	0.046	1.11e-05	240000	binds	–
H123#437 IgG (antibody, V domains shown) VH: QVQLVQSGAEVKKPGSSVKVSCTSSEFMFPAFAISWVRQAPGQGLEWLGGISPMFDHPNYAQKFQGRVTITADQSTRTAYMDLRSLRSEDTAVYYCARSPTYLPSGVFDHWGQGTLVTVSS VL: QPGLTQPPSVSKGLRQTATLTCTGNSNNVGNQGAAWLQQHQGHPPKLLSYRNNDRPSGISERFSASRSGNTASLTITGLQPEDEADYYCSTWDSSLSAVVFGGGTKLTVL	–	0.091	3.52e-05	386000	binds	–
F10 scFv (scFv, V domains shown, not shown: E-tag, C-terminal, kept) VH: QVQLVQSGAEVKKPGSSVKVSCTSSEVTFSSFAISWVRQAPGQGLEWLGGISPMFGTPNYAQKFQGRVTITADQSTRTAYMDLRSLRSEDTAVYYCARSPSYICSGGTCVFDHWGQGTLVTVSS VL: QPGLTQPPSVSKGLRQTATLTCTGNSNNVGNQGAAWLQQHQGHPPKLLSYRNNDRPSGISERFSASRSGNTASLTITGLQPEDEADYYCSTWDSSLSAVVFGGGTKLTVL	–	–	–	–	–	binds

— publication PMC4601012 (Scientific Reports, 2015)
